Data as given in the supplement of paper PMC10567573.

B1: SMOC2 (parent)
chain: QKPLCASDGRTFLSRCEFQRAKCK

Variants of: B1
Experiment: protein stability index of a GFP-peptide fusion (GPS, HEK-293T) (PSI 1-6); higher = more stable
Conditions: c terminus: a fixed tail appended
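Note: lentivirally expressed fusions sorted by FACS into six bins by GFP to DsRed ratio, PSI derived from sequencing read proportions per bin multiplied by bin number.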

Protein stability index of substitutions, site by site:
F12: C 2.97, D 4.57, E 4.5, G 3.93, H 4.22, I 3.4, L 2.97, M 3.16, N 3.96, P 4, Q 4.5, R 3.73, S 4.83, T 3.63, V 3.92, W 2.34, Y 2.49
L13: A 1.9, C 3.51, D 4.78, E 3.72, G 3.31, H 3.31, I 2.82, K 3.3, N 3.78, P 3.56, Q 3.4, R 3.15, S 2.44, T 3.93, V 2.29, W 3.46, Y 2.52
S14: A 3.42, C 2.82, D 3.21, E 3.08, F 2.64, G 3.44, H 3.73, I 2.48, K 2.93, L 3.76, M 3.66, N 3.47, P 4.08, Q 3.25, T 3.4, V 3.22, W 2.21, Y 2.71
R15: A 3.65, C 3.06, D 4.47, E 4.14, F 3.18, G 3.93, H 3.79, I 3.77, K 4.2, L 3.65, M 2.92, N 3.09, P 4.64, Q 3.45, S 3.41, T 4.28, V 3.71, W 3.32, Y 3.09
C16: A 3.39, D 4.62, E 4.62, F 3.86, G 4.3, H 4.04, I 1.79, K 3.9, L 2.55, M 3.43, N 4.28, P 3.57, R 4.44, S 3.83, T 3.96, V 2.61, W 2.89, Y 3.06
E17: A 3.31, C 2.74, D 2.11, F 2.32, G 2.26, H 2.84, I 3.15, K 3.19, L 2.29, M 2.6, N 3.29, P 3.07, Q 4.38, R 3.5, S 2.68, T 3.3, V 2.82, W 1.54, Y 3.05
F18: A 3.93, C 3.56, D 4.12, E 4.73, G 4.44, H 4.32, I 4.24, K 4.62, M 3.67, N 4.19, P 3.49, R 4.37, S 3.82, V 4.01, W 1.6, Y 2.21
Q19: A 2.98, C 3.48, D 3.83, E 3.48, F 2.53, G 3.15, H 3.58, I 3, K 3.67, L 2, M 3.09, N 3.34, P 3.28, S 4.18, T 3.36, V 2.71, W 1.55, Y 3.13
R20: A 3.14, C 3.45, D 4.16, E 3.45, F 2.29, G 3.58, H 2.77, I 3.39, K 3.47, L 3.01, M 3.57, N 3.1, P 3.61, Q 3.52, S 3.19, T 3.83, V 2.9, W 2.4, Y 2.62
A21: C 3.48, D 3.17, E 3.1, F 2.44, G 3.68, H 2.7
